Test results reported in a protein production outcome set (Wang et al. 2014).

Assay: label from the status in PepcDB records

Sequence	protein production
GPGSMYRSRPEPVQGHLFTYYKDPYCKIPVFMMNMDARRCVLWVGGQTESLLSFDYFTNLAEELQGDWAFVQVEVPSGKIGSGPQDHAHDAEDVDDLIGILLRDHCMNEVALFATSTGTQLVFELLENSAHKSSITRVILHGVVCDPENPLFTPEGCAARKEHVEKLMAEGRGEDSLAMLKHYDIPITPARLAGGGFPTLQEAVWNPCIRKEFDVLRRSVGVIKVPLLLMLAHNVQYKPSDEEVGTVLEGVRDHTGCNRVTVSYFNDTCDELRRVLKAAESEHVAAILQFLADEDEFRTETEKNNRIKAAEDEKKRKSVLQVSSFAQAASSVKAS	not failed
GPLGSAMRELLLSDEYAEQKRAVNRFMLLLSTLYSLDAQAFAEATESLHGRTRVYFAADEQTLLKNGNQTKPKHVPGTPYWVITNTNTGRKCSMIEHIMQSMQFPAELIEKVCGTI	not failed
GPVPTPPDNIQVQENFNISRIYGKWYNLAIGSTCPWLKKIMDRMTVSTLVLGEGATEAEISMTSTRWRKGVCEETSGAYEKTDTDGKFLYHKSKWNITMESYVVHTNYDEYAIFLTKKFSRHHGPTITAKLYGRAPQLRETLLQDFRVVAQGVGIPEDSIFTMADRGECVPGEQEPEPILIPRV	not failed
GQLAQDGVPEWFHGAISREDAENLLESQPLGSFLIRVSHSHVGYTLSYKAQSSCCHFMVKLLDDGTFMIPGEKVAHTSLDALVTFHQQKPIEPRRELLTQPCRQKD	not failed
GQTAKLVSLRDISDRKRMENQLRENQNKYYRLLENLDNGVIVHNANAEIVYANPKAESFLGLTDLEGRDIDDEYWMFFDKEGEKLEKEEFPVAQVLANQSSLKNFEMGIYRPDTDQLLWAYINAYPEFYNE	failed
GRDFAVDTKIETIGLTGSLSFKVNDNFSLGAGVIIQRTSGFVSQNLDLYASAANSPGMGGIPFPASNSSALMRVKVDNTSPGFFAGAVWKPTDRDTLGFAYHAKIRNKLKGHYNLYDHDGGLTEGAIEGGTPGLAYPGLDLRMGASASARLDIPAYASLDWVHQFNDRLSLGASATWTEWSSFQDLTLKSHGNTIVSIPYTYRNTWTLAVGGDYKVTDQWTMRAGVAYDQTPTHNATRDPRIPDGDRYFASLGAGYRFQSMPELSIDAAYSRQFVKEVPLKTV	failed
GSHFYFLSKRRRNLLRNPCGEEDLEGWSDVEHGGDGWKVEELPGDNGVEFTQDDSVKKYFASSFEWCRKAQVIDLQAEGYWEELLDTTQPAIVVKDWYSGRTDAGSLYELTVRLLSENEDVLAEFATGQVAVPEDGSWMEISHTFIDYGPGVRFVRFEHGGQDSVYWKGWFGARVTNSSVWVEP	not failed
GSHMDKTFCVVVQNRIKEGYRRAGFSFHLGDNSLAAVSESQLAQLKADPRLVVQITETGSQEGGEGLSKEPAGSDEQKQLRADPPSTDLNTFTVEQLKAQLTERGITFKQSATKAELIALFAPADGEKSEA	not failed
GSLKCILLNQAEELPIEFLPKDGVYGKGKLFDSRNMEIENFTESDILQDARRAAEAHRRARYRVQSIVRPGITLLEIVRSIEDSTRTLLKGERNNGIGFPAGMSMNSCAAHYTVNPGEQDIVLKEDDVLKIDFGTHSDGRIMDSAFTVAFKENLEPLLVAAREGTETGIKSLGVDVRVCDIGRDINEVISSYEVEIGGRMWPIRPISDLHGHSISQFRIHGGISIPAVNNRDTTRIKGDSFYAVETFATTGKGSIDDRPPCSHFVLNTYKSRKLFNKDLIKVYEFVKDSLGTLPFSPRHLDYYGLVKGGSLKSVNLLTMMGLLTPYPPLNDIDGCKVAQFEHTVYLSEHGKEVLTRGDDY	not failed
GSLQDNSSYPDEPWRITEEQREYYVNQFRSLQPDPSSFISGSVAKNFFTKSKLSIPELSYIWELSDADCDGALTLPEFCAAFHLIVARKNGYPLPEGLPPTLQPEFIVTD	not failed
GSQPKLTEAVSLMEANIEEPLSTDDIAYYVGVSRRQLERLFKQYLGTVPSKYYLELRLNRARQLLQQTSKSIVQIGLACGFSSGPHFSSTYRNHFNITPREERAQRAQPGAL	not failed
GSSGSSGGYFDAHALAMDYRSLGFRECLAEVARYLSIIEGLDASDPLRVRLVSHLNNYASQREASGPSSG	not failed
GSSGSSGMPMTLGYWDIRGLAHAIRLFLEYTDSSYEEKRYTMGDAPDYDQSQWLNEKFKLGLDFPNLPYLIDGSHKITQSNAILRYLGRKHNLCGETEEERIRVDILENQLMDNRMVLARLCYNADFEKLKPGYLEQLPGMMRLYSEFLGKRPWFAGDKITFVDFIAYDVLERNQVFEAKCLDAFPNLKDFIARFEGLKKISDYMKTSRFLPRPMFTKMATWGSNSGPSSG	not failed
GSSGSSGMTPLVKDIIMSSTRMPALFLGHGSPMNVLEDNLYTRSWQKLGMTLPRPQAIVVVSAHWFTRGTGVTAMETPPTIHDFGGFPQALYDTHYPAPGSPALAQRLVELLAPIPVTLDKEAWGFDHGSWGVLIKMYPDADIPMVQLSIDSSKPAAWHFEMGRKLAALRDEGIMLVASGNVVHNLRTVKWHGDSSPYPWATSFNEYVKANLTWQGPVEQHPLVNYLDHEGGTLSNPTPEHYLPLLYVLGAWDGQEPITIPVEGIEMGSLSMLSVQIG	not failed
GTTVPAPIMQTTDNSLTWLLQNLLDRTPGTRHALVLSRDGLRLCWTEHLTLDRADQLAAICSGIQALAQGASVEFGNGTGGVRHSMTEFHGGLLFIVEAGEGAHLAVVAVEDADPGVVGHQMTELVEQIGEHLRAEPRH	failed
GVAVEVRGLPPAVPDELLTLYFENRRRSGGGPVLSWQRLGCGGVLTFREPADAERVLAQADHELHGAQLSLRPAPPRAPARLLLQGLPPGT	not failed
GVKYTIAVLGPQGSFSEEMALKLVGSRVPLRYCSTTDEIIKLVESGEVDYGLVPIENSVNGTVLPVIDALLNHDVEVFGEAKLEVNHCLVAKRKIELKEIKTIYSHPQAVAQCMGFINNYLPSVAIRYTTSTSDAARMLDDYSAAIMSENAARFYRLHVLRKGIQDLKGRNITRFYLIRRRSG	failed

Sequence	protein production
GVQKVDKARKQITVAGGTRINEVGKTLKQHGLSLINQGDIDSQAVAGAFTTGTHGTGIKLGNMASSIAGMRIVKANGEILDIDGSDEELLHAAQVSVGTLGIISSMTLNVMDA	failed
GVTYLLAKRKILYFEAVESKIFVYTEKDVYETTWKLYELEEKFKDSSFFRCSKSMILNIEWIEKIAPGFHGKFEASLFNREKVIISRQYAKILKQKLNLGGKGK	failed
GWKVEYMAIADPQTIDQTPIVIVGGAFQNFNSYKYCVEQLFHCGPVILIDLPSMGANQQITNRDSGVSAAVLELPDLAKILVEWLDIIKIQKISMMGMSLGSVVASCFADLRPDMIDRLVLMGVMQKTRKSWRMILEESLKLMQENRMEEFGQAVILYLVNHAKLDQTRMSPTAKRLFFRQMAEFNPTERLRYEINCQRLLRLKDVPIPQCKTLVAAGQYDSFTLPFENANFALQCPDVEFALIANADHVPQLQRRKETMRLFETFLNH	failed
HALQAGRLGSTVFVANLDYKVGWKKLKEVFSMAGVVVRADILEDKDGKSRGIGTVTFEQSIEAVQAISMFNGQLLFDRPMHVKMDERALPKGDFFPPERPQQ	failed
HCSADLVLVEPTPLAVLDRIALVTDNGPFDPRKVELANGLAAAAGASLVLGHAVPADATEDQRATVRTYHEDLMGLCTVPVESNIVGTTTPAAMARAVSAADLVVVESDAAWWARLLDNREPQRIAGAFGGPAIVVRPQQAEGPSPVRRLLERVAF	failed
HEHPTSAGGDGGAGTGAVGTHDGSAAAAAAAAALPSISGARGHAGPEGGHDNDMGGMDASGGGGGGGYGRLPGLAAQSSMASVDGDEASLPPIANLSLGKANMTGSTVGGAAHASTRRSTLNTYYEPGAGGGGGTGGAGGGGGGAGPGPAGYGKVAKAAAVGGAGSVAGGGGVVGGAGVGGGGAVGSGTVGRRQSVGVVVGKYGSVNKQASQGHGGGGPGVAGAAGMAVTGGHAGGGVGGGGGGAVGVGGVGVNKYKANVGKTNSKYISPYSLRQLAG	failed
HERVGNLNQPIEVTALYSFEGQQPGDLNFQAGDRITVISKTDSHFDWWEGKLRGQTGIFPANYVTMN	not failed
HLGIPPSGALDQYALRAANLLVGNAPTAAVLECALLGPQLEFQRDALVAVCGARMTPRLEGAEMPLDTSFRVRAGQVLGFDFIRAGARGYLAIDGGIAVPEVLGSRSTYGLGAIGGLQGRRLAEGDLLPLGPASPSAVEGLALPRSLQVEVGGEVSLRVVPGLYVHRLTPDAVERFFAETWTVGSEADRTGYRFKGGTALRFEPREQPFGAGSDPSNIVDACYPIGSIQVPGGLEPIVLHRDAVSGGGYATLGTVISPDLNRLAQMQPNQKGRFVAVSLEEGLEARRRYNWQ	failed
HPEKCSECSYSCSSKAALRIHERIHCTDRPFKCNYCSFDTKQPSNLSKHMKKFHGDM	not failed
HSAIVILDSRGNIQRFNRLCEDYTGLKEHDVIGQSVFKLFMSRREAAASRRNNRVFFRSGNAYEVELWIPTRKGQRLFLFRNKFVHSGSGKNEIFLICSGTD	failed
HYRRALSGPVDPGLAVFSAYWDRGVSCNPAAIAAKLAELAPHIHPVWVVARNKAALLPPGTDHIVPGTRRYWEVMARAKYLVNNVNFPNSVVKRPDAIHLQTHHGTPLKRMGLDQREFPAASKGLDFGALLARIDKWDYSVSANSHSTRMWERAYPSHYISLDHGYPRNDVFYSATADDIRAIRDRLGIPPGRRAILYAPTHRDYEAGWTPRLDLASLADRLGEETVLLVRGHYFYGGAASPLAGLRRSGRVIDVSTYDPVEELCLAADALVTDYSSIMFDYANLNRPIVIYADDWETYAKTRGVYFDLMAEGPGQVTRTQDELAAVFESGAWRDEGARKALSAFRRRFCEFDDGRAAERVVR	failed
IDFRPYGGFIFDMDGTLIDTMPAHLAAWQATADRFDFPFCQEWLHSLGGMPSFKIVAELNRHYGLSLDPQTVSKFKMETFAAMELQGDVIQCTGIVLEEYLGQKKIAVGTGSQRESAMRLLSHAGLIDRLDAVVTASDVENHKPCPDTFLLAADRLGIDAQNCLVFEDTELGKRAAHSAGMDCVMVEGNNLV	failed
IDLAHPDLALHLHLNRGGAVLSLDGSGVSLHRRGYRAAMGAAPLKENLAAGLIQLTGWDGRMPLVDPFCGSGILLIEAVTMALQQAPGLGRQFGLEGWADFDRELWEREHARARQRRRSDLDLAPVVGYEQDPLIADQARDNIRAAGLDGLISIHSGSFEQQTLPPGPGLLVCNPPYGHRVGSEDDLEQLYRLLGSFVREQASGWQLWLLSGNASLTGALRLKASRRIPVSNGGIDCRWLNYGIR	failed
IKENAAQEVLEVQKVIDRLADNGQKALKAFESYNQEQVDNIVHAMALAGLDQHMPLAKLAVEETGRGLYEDKCIKNIFATEYIWNNIKNNKTVGVINEDTQTGVIEIAEPVGVVAGVTPVTNPTSTTLFKAIIAIKTRNPIIFAFHPSAQRCSSEAAKVVYDAAVAAGAPEHCIQWVEKPSLEATKQLMNHDKVALVLATGGAGMVKSAYSTGKPALGVGPGNVPAYIDKTAKIKRSVNDIILSKSFDQGMICASE	failed
IKNFLYAWCGKRKMTPAYEIRAVGNKNRQKFMCEVRVEGFNYAGMGNSTNKKDAQSNAARDFVNYLVRINEVKSEEVPAVGIVPPP	not failed
IKQMLLDWCRAKTRGYEHVDIQNFSSSWSDGMAFCALVHNFFPEAFDYGQLSPQNRRQNFEVAFSSAETHADCPQLLDTEDMVRLREPDWKCVYTYIQEFYRCLVQKGLVKTKKS	not failed
ILQLTSDTLILVDKNGTCLDIDPHSDLWFLQEDRLLGKNLFNLLPDHTFQKLLPDFRRVTQQGITVNRNYRLPLEGGETYYFKCIMQPYDGDKVLCQYRDIT	failed
